What was measured:
[1] = target: T1, Anti-PSMA Fab; assay: phage binding ELISA on captured anti-PSMA Fab; wells pre-incubated with PSMA antigen as competitor; anti-M13-HRP detection
T1 construct: Biotinylated and captured on neutravidin coated plates in the phage ELISA; also called 006 PSMA Fab
Procedure: (§1) Clonal phage were harvested as crude supernatants and screened via standard ELISAs. […] Prior to the addition of clonal phage. wells were incubated with blocking buffer and PSMA antigen or blocking buffer alone. Without washing or aspirating, clonal phage supernatants were then added to the wells and incubated for a short time. Wells were then washed followed by detection of bound phage using a horse radish conjugated anti-M13 antibody.

[2] = target: T1, Anti-PSMA Fab; assay: phage binding ELISA; clonal phage supernatant on biotinylated anti-PSMA Fab captured on neutravidin plate; anti-M13-HRP detection
Procedure: as §1

[3] = target: T2, PSMA Fab (006 PSMA Fab); assay: clonal phage ELISA on captured PSMA Fab, wells pre-incubated with PSMA antigen as competitor
T2 construct: also called Anti-PSMA Fab
Procedure: as §1

[4] = target: T2, PSMA Fab (006 PSMA Fab); assay: clonal phage ELISA on biotinylated PSMA Fab captured on neutravidin, anti-M13 HRP detection;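 further: crude clonal phage supernatants added to wells pretreated with PSMA antigen in blocking buffer or with blocking buffer only, then briefly incubated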
Procedure: as §1

[5] = target: T3, PSMA Fab (biotinylated (site not stated)); assay: clonal phage ELISA on captured PSMA Fab, competitor PSMA antigen pre-incubated
T3 construct: Biotinylated PSMA Fab captured on neutravidin coated plates in the phage ELISA; also called Anti-PSMA Fab; 006 PSMA Fab

[6] = target: T3, PSMA Fab; assay: clonal phage ELISA on biotinylated PSMA Fab captured on neutravidin, anti-M13 HRP detection;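 further: crude clonal phage supernatants added to wells pretreated with PSMA antigen in blocking buffer or with blocking buffer only, then briefly incubated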
Procedure: as §1

[7] = target: T4, Anti-PSMA Fab (biotinylated (site not stated)); assay: clonal phage ELISA on captured PSMA Fab, wells pre-incubated with PSMA antigen as competitor, anti-M13 HRP detection;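 further: crude clonal phage supernatants added, with no intervening wash, to wells preincubated with PSMA antigen in blocking buffer, incubated briefly, then washed before detecting bound phage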
T4 construct: also called 006 PSMA Fab

[8] = target: T4, Anti-PSMA Fab; assay: clonal phage ELISA on biotinylated PSMA Fab captured on neutravidin plate, anti-M13 HRP detection
Procedure: as §1

For NLGWCVPVWMCEGF (Tested as clonal phage supernatant) [Phage-3586 (Peptide-180 library clone)], the “Phage binding ELISA signal, Anti-PSMA Fab with PSMA antigen” value [1] was 0.101 and the “Phage binding ELISA signal, Anti-PSMA Fab” value [2] was 1.61.

With NIMRCQPSWMCTGF (Tested as clonal phage supernatant) [Phage-3583 (Peptide-180 library clone)] the “Phage binding ELISA signal, Anti-PSMA Fab with PSMA antigen” value [1] was 0.064 and the “Phage binding ELISA signal, Anti-PSMA Fab” value [2] was 1.61.

B1: Phage-3565 (peptide)
peptide: ELLKCVPQWMCTGF
notes: Peptide-180 library clone, tested as clonal phage supernatant with the peptide fused to pIII of the bacteriophage
For B1, the “Phage binding ELISA signal, Anti-PSMA Fab in presence of PSMA” value (from here on “Phage binding ELISA signal … of PSMA”) [3] was 0.126 and the “Phage binding ELISA signal, Anti-PSMA Fab” value [4] was 1.63.

GMGMCVPTWMCTGM (Tested as clonal phage supernatant) [Phage-3579 (Peptide-180 library clone)] was tested, and the “Phage binding ELISA signal, Anti-PSMA Fab with PSMA antigen” value [1] was 0.0797 and the “Phage binding ELISA signal, Anti-PSMA Fab” value [2] was 1.62.

VETLCRPAWMCWGF [Phage-3598] was tested, and the “Phage binding ELISA signal, Anti-PSMA Fab with PSMA antigen” value [5] was 0.0788 and the “Phage binding ELISA signal, Anti-PSMA Fab” value [6] was 1.59.

B2: Phage-3574 (peptide)
peptide: EDIKCIPRWMCEGF
notes: as for B1
B2 was tested, and the “Phage binding ELISA signal … of PSMA” value [3] was 0.0923 and the “Phage binding ELISA signal, Anti-PSMA Fab” value [4] was 1.62.

For EELMCRPVWMCLGF [Phage-3591], the “Phage binding ELISA signal, Anti-PSMA Fab with PSMA antigen” value [5] was 0.0789 and the “Phage binding ELISA signal, Anti-PSMA Fab” value [6] was 1.6.

With VEKMCKPAWMCNVF [Phage-3592] the “Phage binding ELISA signal, Anti-PSMA Fab with PSMA antigen” value [5] was 0.0777 and the “Phage binding ELISA signal, Anti-PSMA Fab” value [6] was 1.6.

B3: Phage-3566 (peptide)
peptide: VSTMCVPEWMCGGF
notes: as for B1
For B3, the “Phage binding ELISA signal … of PSMA” value [3] was 0.122 and the “Phage binding ELISA signal, Anti-PSMA Fab” value [4] was 1.63.

With HEPVCRPEWMCQGF (Tested as clonal phage supernatant) [Phage-3587 (Peptide-180 library clone)] the “Phage binding ELISA signal, Anti-PSMA Fab with PSMA antigen” value [1] was 0.0717 and the “Phage binding ELISA signal, Anti-PSMA Fab” value [2] was 1.6.

With VVNFCKPQWMCSGF (Clonal phage of the Peptide-180 library) [Phage-3561] the “Phage binding ELISA signal, Anti-PSMA Fab with PSMA antigen” value [7] was 0.0682 and the “Phage binding ELISA signal, Anti-PSMA Fab” value [8] was 1.64.

In the case of PSPICRPEWMCVWL (Tested as clonal phage supernatant) [Phage-3584 (Peptide-180 library clone)], the “Phage binding ELISA signal, Anti-PSMA Fab with PSMA antigen” value [1] is reported as 0.0954 and the “Phage binding ELISA signal, Anti-PSMA Fab” value [2] is reported as 1.61.

For QDLKCVPSWMCSGF [Phage-3599], the “Phage binding ELISA signal, Anti-PSMA Fab with PSMA antigen” value [5] was 0.0713 and the “Phage binding ELISA signal, Anti-PSMA Fab” value [6] was 1.59.

In the case of ETFTCKPPWMCIGF (Tested as clonal phage supernatant) [Phage-3576 (Peptide-180 library clone)], the “Phage binding ELISA signal, Anti-PSMA Fab with PSMA antigen” value [1] is reported as 0.104 and the “Phage binding ELISA signal, Anti-PSMA Fab” value [2] is reported as 1.62.

In the case of EIPWCVPSWMCNYF [Phage-3597], the “Phage binding ELISA signal, Anti-PSMA Fab with PSMA antigen” value [5] is reported as 0.0904 and the “Phage binding ELISA signal, Anti-PSMA Fab” value [6] is reported as 1.59.

For ESHLCRPAWMCTGF (Tested as clonal phage supernatant) [Phage-3588 (Peptide-180 library clone)], the “Phage binding ELISA signal, Anti-PSMA Fab with PSMA antigen” value [1] was 0.089 and the “Phage binding ELISA signal, Anti-PSMA Fab” value [2] was 1.6.

B4: Phage-3575 (peptide)
peptide: FIAQCQPTWMCTGF
notes: as for B1
With B4 the “Phage binding ELISA signal … of PSMA” value [3] was 0.076 and the “Phage binding ELISA signal, Anti-PSMA Fab” value [4] was 1.62.

For ESYTCVPMWMCTGF (Tested as clonal phage supernatant) [Phage-3582 (Peptide-180 library clone)], the “Phage binding ELISA signal, Anti-PSMA Fab with PSMA antigen” value [1] was 0.088 and the “Phage binding ELISA signal, Anti-PSMA Fab” value [2] was 1.61.

QGVACIPTWMCTGF [Phage-3595] was tested, and the “Phage binding ELISA signal, Anti-PSMA Fab with PSMA antigen” value [5] was 0.0711 and the “Phage binding ELISA signal, Anti-PSMA Fab” value [6] was 1.59.

For YEKLCEPRWMCDGF (Tested as clonal phage supernatant) [Phage-3577 (Peptide-180 library clone)], the “Phage binding ELISA signal, Anti-PSMA Fab with PSMA antigen” value [1] was 0.0657 and the “Phage binding ELISA signal, Anti-PSMA Fab” value [2] was 1.62.

With PDPLCVPNWMCIGL [Phage-3593] the “Phage binding ELISA signal, Anti-PSMA Fab with PSMA antigen” value [5] was 0.0686 and the “Phage binding ELISA signal, Anti-PSMA Fab” value [6] was 1.6.

B5: Phage-3571 (peptide)
peptide: EMPLCIPQWMCGGF
notes: as for B1
B5 was tested, and the “Phage binding ELISA signal … of PSMA” value [3] was 0.0691 and the “Phage binding ELISA signal, Anti-PSMA Fab” value [4] was 1.62.

B6: Phage-3573 (peptide)
peptide: AWMRCEPAWMCVGF
notes: as for B1
With B6 the “Phage binding ELISA signal … of PSMA” value [3] was 0.0695 and the “Phage binding ELISA signal, Anti-PSMA Fab” value [4] was 1.62.

For YDVVCKPAWMCNGF (Tested as clonal phage supernatant) [Phage-3578 (Peptide-180 library clone)], the “Phage binding ELISA signal, Anti-PSMA Fab with PSMA antigen” value [1] was 0.0676 and the “Phage binding ELISA signal, Anti-PSMA Fab” value [2] was 1.62.

With TFMRCEPVWMCDGF (Tested as clonal phage supernatant) [Phage-3585 (Peptide-180 library clone)] the “Phage binding ELISA signal, Anti-PSMA Fab with PSMA antigen” value [1] was 0.0709 and the “Phage binding ELISA signal, Anti-PSMA Fab” value [2] was 1.61.

With LGHWCSPTWMCMGF (Tested as clonal phage supernatant) [Phage-3581 (Peptide-180 library clone)] the “Phage binding ELISA signal, Anti-PSMA Fab with PSMA antigen” value [1] was 0.11 and the “Phage binding ELISA signal, Anti-PSMA Fab” value [2] was 1.62.

B7: Phage-3564 (peptide)
peptide: SPSYCVPKWMCVGF
notes: as for B1
For B7, the “Phage binding ELISA signal … of PSMA” value [3] was 0.0712 and the “Phage binding ELISA signal, Anti-PSMA Fab” value [4] was 1.64.

B8: Phage-3562 (peptide)
peptide: DDIRCEPIWMCTGF
notes: as for B1
B8 was tested, and the “Phage binding ELISA signal … of PSMA” value [3] was 0.0657 and the “Phage binding ELISA signal, Anti-PSMA Fab” value [4] was 1.64.

B9: Phage-3568 (peptide)
peptide: PEAYCVPSWMCTGF
notes: as for B1
For B9, the “Phage binding ELISA signal … of PSMA” value [3] was 0.0764 and the “Phage binding ELISA signal, Anti-PSMA Fab” value [4] was 1.62.

B10: Phage-3567 (peptide)
peptide: DAMLCRPSWMCDGF
notes: as for B1
For B10, the “Phage binding ELISA signal … of PSMA” value [3] was 0.0871 and the “Phage binding ELISA signal, Anti-PSMA Fab” value [4] was 1.62.

For MPGACVPLWMCYGF [Phage-3590], the “Phage binding ELISA signal, Anti-PSMA Fab with PSMA antigen” value [5] was 0.0685 and the “Phage binding ELISA signal, Anti-PSMA Fab” value [6] was 1.6.

With QLAMCVPLWMCYGF (Tested as clonal phage supernatant) [Phage-3580 (Peptide-180 library clone)] the “Phage binding ELISA signal, Anti-PSMA Fab with PSMA antigen” value [1] was 0.092 and the “Phage binding ELISA signal, Anti-PSMA Fab” value [2] was 1.62.

For TEIRCQPQWMCHGF [Phage-3594], the “Phage binding ELISA signal, Anti-PSMA Fab with PSMA antigen” value [5] was 0.0698 and the “Phage binding ELISA signal, Anti-PSMA Fab” value [6] was 1.6.

In the case of TTLMCTPQWMCDGF (Tested as clonal phage supernatant) [Phage-3589 (Peptide-180 library clone)], the “Phage binding ELISA signal, Anti-PSMA Fab with PSMA antigen” value [1] is reported as 0.0718 and the “Phage binding ELISA signal, Anti-PSMA Fab” value [2] is reported as 1.6.

B11: Phage-3572 (peptide)
peptide: VPTLCKPSWMCYGF
notes: as for B1
In the case of B11, the “Phage binding ELISA signal … of PSMA” value [3] is reported as 0.0941 and the “Phage binding ELISA signal, Anti-PSMA Fab” value [4] is reported as 1.62.

B12: Phage-3569 (peptide)
peptide: VAQWCTPSWMCDGF
notes: as for B1
With B12 the “Phage binding ELISA signal … of PSMA” value [3] was 0.0794 and the “Phage binding ELISA signal, Anti-PSMA Fab” value [4] was 1.62.

B13: Phage-3570 (peptide)
peptide: VDKACTPAWMCTGF
notes: as for B1
In the case of B13, the “Phage binding ELISA signal … of PSMA” value [3] is reported as 0.0716 and the “Phage binding ELISA signal, Anti-PSMA Fab” value [4] is reported as 1.62.

B14: Phage-3563 (peptide)
peptide: EHRICVPQWMCTGF
notes: as for B1
B14 was tested, and the “Phage binding ELISA signal … of PSMA” value [3] was 0.0676 and the “Phage binding ELISA signal, Anti-PSMA Fab” value [4] was 1.64.

LERLCRPAWMCDGF [Phage-3596] was tested, and the “Phage binding ELISA signal, Anti-PSMA Fab with PSMA antigen” value [5] was 0.136 and the “Phage binding ELISA signal, Anti-PSMA Fab” value [6] was 1.59.

With MERWCIPVWMCQGL (Clonal phage of the Peptide-180 library) [Phage-3560] the “Phage binding ELISA signal, Anti-PSMA Fab with PSMA antigen” value [7] was 0.0734 and the “Phage binding ELISA signal, Anti-PSMA Fab” value [8] was 1.64.
